Measured values reported in patent US5830755.
Values belong to the substance of their own block, whether it stands above or below them.

Columns and labels:
[1] = target: CD3 on murine TIL (murine)
[2] = target: MART-1(22-30) peptide … pulsed on HLA-A2.1 T2 cells (human)
[3] = target: MART-1(27-35) peptide … presented by HLA-A2.1 (human)
[4] = target: MART-1(27-36) peptide … presented by HLA-A2.1 (human)
[5] = target: MART-1(32-40) peptide … pulsed on HLA-A2.1 T2 cells (human)
[6] = target: gp100(457-465) peptide … presented by HLA-A2.1 (human)
[7] = target: 38 kD folate binding protein (FBP) (Homo sapiens (Human)) (UniProt P15328)
[8] = target: 38 kD folate binding protein (FBP) (Homo sapiens (Human)) (UniProt P15328); remark: listed apart in the source
[9] = target: 38 kD folate binding protein (FBP) (Homo sapiens (Human)) (UniProt P15328); remark: listed apart in the source
[10] = target: MART-1 antigen processed in the cell and presented by HLA-A2.1 (human) (UniProt Q16655)
[11] = target: gp100 antigen processed in the cell and presented by HLA-A2.1 (human) (UniProt P40967)
[12] = target: MART-1(22-30) peptide … pulsed on HLA-A2.1 T2 cells (human); remark: listed apart in the source
[13] = target: MART-1(26-35) peptide … presented by HLA-A2.1 (human)
[14] = target: MART-1(27-35) peptide … presented by HLA-A2.1 (human); remark: listed apart in the source
[15] = target: MART-1(27-36) peptide … presented by HLA-A2.1 (human); remark: listed apart in the source
[16] = target: gp100(280-288) peptide … presented by HLA-A2.1 (human)
[17] = target: melanoma antigen presented by HLA-A1 on HLA-A1+, HLA-A2- melanoma cell lines (peptide not identified) (human)
[18] = target: melanoma antigen presented by HLA-A2 on HLA-A2+ melanoma cell lines (peptide not identified in the experiment) (human)
[19] = target: melanoma antigen presented by HLA-A1 on HLA-A1+, HLA-A2- melanoma cell lines (peptide not identified) (human); remark: listed apart in the source
[20] = target: melanoma antigen presented by HLA-A2 on HLA-A2+ melanoma cell lines (peptide not identified in the experiment) (human); remark: listed apart in the source
[21] = target: MART-1(26-35) peptide … presented by HLA-A2.1 (human); remark: listed apart in the source
[22] = target: MART-1 antigen processed in the cell and presented by HLA-A2.1 (human) (UniProt Q16655); remark: listed apart in the source
[23] = target: melanoma antigen presented by HLA-A1 on HLA-A1+, HLA-A2- melanoma cell lines (peptide not identified) (human); remark: listed apart in the source
[24] = target: melanoma antigen presented by HLA-A1 on HLA-A1+, HLA-A2- melanoma cell lines (peptide not identified) (human); remark: listed apart in the source
[25] = target: melanoma antigen presented by HLA-A2 on HLA-A2+ melanoma cell lines (peptide not identified in the experiment) (human); remark: listed apart in the source
[26] = target: MART-1(27-35) peptide … presented by HLA-A2.1 (human); remark: listed apart in the source
[27] = target: MART-1(27-35) peptide … presented by HLA-A2.1 (human); remark: listed apart in the source

Substance: Jurkat neo (non-transfected Jurkat cells with the endogenous Jurkat TCR, Vβ8)
IL-2 released [2]: < 10 pg/mL | IL-2 released [3]: < 10 pg/mL | IL-2 released [4]: < 10 pg/mL | IL-2 released [5]: < 10 pg/mL | IL-2 released [6]: < 10 pg/mL

Substance: Sp-γ chimeric receptor (scFv of anti-2,4,6 TNP MoAb Sp6 joined to the Fc receptor γ chain) (CAR)
pg mIFN-γ/ml/5 × 10^5 cells/16 hours [7]: 1010 pg/mL

Substance: TIL 1200 TCR (TIL 1200 clonotype, Vα9/Jα16/Cα and Vβ22.1/Dβ2.1/Jβ2.1/Cβ2)
% lysis, 4 hour 51Cr release, E:T 40:1 [19]: 2 % lysis | % lysis, 4 hour 51Cr release, E:T 40:1 [20]: 68 % lysis | IFN-γ Secretion [10]: < 10 pg/mL | IFN-γ Secretion [11]: 451 pg/mL | GM-CSF released [2]: < 10 pg/mL | GM-CSF released [21]: 23 pg/mL | GM-CSF released [3]: 19 pg/mL | GM-CSF released [4]: 19 pg/mL | GM-CSF released [5]: < 10 pg/mL | GM-CSF released [6]: 240 pg/mL

Substance: TIL 1235 (uncloned TIL line) (cells without a defined receptor)
IFN-γ Secretion [16]: 15 pg/mL | GM-CSF released [2]: 21 pg/mL | GM-CSF released [21]: 6710 pg/mL | GM-CSF released [3]: 11900 pg/mL | GM-CSF released [4]: 614 pg/mL | GM-CSF released [5]: < 10 pg/mL | GM-CSF released [6]: 27 pg/mL | GM-CSF released [22]: 557 pg/mL | GM-CSF released [23]: < 10 pg/mL

Substance: TIL C10-1 TCR (C10-1 T-cell clonotype, Vα8.2/Jα49/Cα and Vβ13.6/Dβ1.1/Jβ1.5/Cβ1)
% lysis, 4 hour 51Cr release, E:T 40:1 [19]: 55 % lysis | % lysis, 4 hour 51Cr release, E:T 40:1 [20]: 0 % lysis

Substance: TIL F2-2 TCR (TIL F2-2 clonotype, Vα17/Jα42/Cα and Vβ6.5/Dβ1.1/Jβ1.5/Cβ1)
% lysis, 4 hour 51Cr release, E:T 40:1 [19]: 1 % lysis | % lysis, 4 hour 51Cr release, E:T 40:1 [20]: 46 % lysis

Substance: clone 1E2 TCR (TIL 1E2 clonotype, Vα25/Jα54/Cα and Vβ3.1/Dβ1.1/Jβ1.1/Cβ1)
% lysis, 5 hr 51Cr release, E:T 20:1 [24]: 0 % lysis | % lysis, 5 hr 51Cr release, E:T 20:1 [25]: 94 % lysis | IFN-γ Secretion [10]: 1340 pg/mL | IFN-γ Secretion [11]: < 10 pg/mL | IFN-γ Secretion [12]: 18 pg/mL | IFN-γ Secretion [13]: 5250 pg/mL | IFN-γ Secretion [14]: 16500 pg/mL | IFN-γ Secretion [15]: 24 pg/mL | IFN-γ Secretion [16]: 21 pg/mL | IFN-γ Secretion [17]: 29 pg/mL | IFN-γ Secretion [18]: 2700 pg/mL

Substance: clone 5 TCR (TIL5 clonotype, Vα1/Jα49/Cα and Vβ7.3/Dβ2.1/Jβ2.1/Cβ2)
% lysis, 4 hour 51Cr release, E:T 10:1 [19]: -2 % lysis | % lysis, 4 hour 51Cr release, E:T 10:1 [20]: 52 % lysis | IL-2 released [2]: < 10 pg/mL | IL-2 released [21]: 4060 pg/mL | IL-2 released [3]: 4760 pg/mL | IL-2 released [4]: 469 pg/mL | IL-2 released [5]: < 10 pg/mL | IL-2 released [6]: < 10 pg/mL | IL-2 released (pg/ml), HLA-A2+ melanoma cells loaded with peptide [26]: 540 pg/mL | concentration of peptide required to provide 50% of maximal IL-2 stimulation [27]: 50 to 200 nM

Substance: nontransduced murine MC38 TIL (cells without a defined receptor)
pg mIFN-γ/ml/5 × 10^5 cells/16 hours [7]: 1640 pg/mL

Substance: splenocytes of normal mice (cells without a defined receptor)
mIFN-γ, pg/1.5 × 10^6 splenocytes/ml/48 hrs, fresh splenocytes [8]: 92 pg/mL

Next, values leading:

pg mIFN-γ/ml/5 × 10^5 cells/16 hours [1]: > 50000 pg/mL
Substance: 2C11 (anti-CD3) antibody

pg mIFN-γ/ml/5 × 10^5 cells/16 hours [7]: 16000 pg/mL | mIFN-γ, pg/1.5 × 10^6 splenocytes/ml/48 hrs, fresh splenocytes [8]: 1080 pg/mL | mIFN-γ, pg/1.5 × 10^6 splenocytes/ml/18 hrs, activated splenocytes [9]: 2830 pg/mL
Substance: MOv-γ chimeric receptor (scFv of MoAb MOv18 joined to the Fc receptor γ chain) (CAR)

IFN-γ Secretion [10]: 121 pg/mL | IFN-γ Secretion [11]: < 10 pg/mL
Substance: TIL 501 (uncloned TIL culture) (cells without a defined receptor)

IFN-γ Secretion [12]: 21 pg/mL | IFN-γ Secretion [13]: 1120 pg/mL | IFN-γ Secretion [14]: 2330 pg/mL | IFN-γ Secretion [15]: 52 pg/mL | IFN-γ Secretion [16]: 1320 pg/mL | IFN-γ Secretion [17]: 27 pg/mL | IFN-γ Secretion [18]: 585 pg/mL
Substance: TIL 660 (uncloned TIL line) (cells without a defined receptor)

IFN-γ Secretion [10]: 986 pg/mL | IFN-γ Secretion [11]: 199 pg/mL
Substance: TIL 1143 (uncloned TIL culture) (cells without a defined receptor)

% lysis, 5 hr 51Cr release, E:T 20:1 [24]: 0 % lysis | % lysis, 5 hr 51Cr release, E:T 20:1 [25]: 57 % lysis | IFN-γ Secretion [10]: 730 pg/mL | IFN-γ Secretion [11]: < 10 pg/mL | IFN-γ Secretion [12]: 16 pg/mL | IFN-γ Secretion [13]: 765 pg/mL | IFN-γ Secretion [14]: > 20000 pg/mL | IFN-γ Secretion [15]: 22 pg/mL | IFN-γ Secretion [16]: 19 pg/mL | IFN-γ Secretion [17]: 18 pg/mL | IFN-γ Secretion [18]: 772 pg/mL
Substance: clone A42 TCR (TIL A42 clonotype, Vα21/Jα42/Cα and Vβ7.3/Dβ2.1/Jβ2.7/Cβ2)
